# In patent US20260263521A1 (AIMED BIO, published 2026):
# T1: human CD200R1 expressed on cells (Jurkat-CD200R1, U937-CD200R1, HH cells) (human, UniProt Q8TD46 25-348)
# T1 sequence (looked up): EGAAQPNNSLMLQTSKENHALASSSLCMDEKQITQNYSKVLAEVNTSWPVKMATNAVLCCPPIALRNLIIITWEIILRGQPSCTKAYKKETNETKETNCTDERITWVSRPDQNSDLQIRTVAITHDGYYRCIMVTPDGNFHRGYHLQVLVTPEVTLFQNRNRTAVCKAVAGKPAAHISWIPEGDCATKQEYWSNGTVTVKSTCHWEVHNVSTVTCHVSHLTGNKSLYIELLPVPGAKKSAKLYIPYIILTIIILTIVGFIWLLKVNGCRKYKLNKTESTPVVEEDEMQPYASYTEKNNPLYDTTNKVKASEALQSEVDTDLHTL
# T2: human CD200R1 recombinant protein (construct not stated) (human, UniProt Q8TD46 27-266, limits assumed)
# T2 sequence (looked up): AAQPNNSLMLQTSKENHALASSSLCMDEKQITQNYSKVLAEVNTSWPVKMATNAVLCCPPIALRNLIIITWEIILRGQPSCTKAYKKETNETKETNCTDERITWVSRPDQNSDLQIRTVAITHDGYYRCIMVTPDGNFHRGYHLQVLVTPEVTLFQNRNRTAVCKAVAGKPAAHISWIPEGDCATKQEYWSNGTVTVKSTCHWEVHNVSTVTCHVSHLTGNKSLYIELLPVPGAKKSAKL
# T3: monkey CD200RLa (Sino Biological, 11576-C02H) recombinant protein (monkey (cyno), UniProt A0A2K5W6R0 30-246)
# T3 construct: Bought; construct not described; also called cyno CD200RLa
# T3 sequence: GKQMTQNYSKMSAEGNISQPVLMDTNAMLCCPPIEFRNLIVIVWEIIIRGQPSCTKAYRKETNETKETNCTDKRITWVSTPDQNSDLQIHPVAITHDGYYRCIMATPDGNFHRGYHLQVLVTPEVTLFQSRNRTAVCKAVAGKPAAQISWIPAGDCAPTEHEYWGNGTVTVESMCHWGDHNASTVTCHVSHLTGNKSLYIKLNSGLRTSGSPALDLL
# T4: recombinant human CD200R1 Fc chimera protein, CF (R&D systems, 3414-CD) (human, UniProt Q8TD46 27-266)
# T4 construct: Bought; also called CD200R1-Fc protein; human CD200R1 Fc protein; Fc part of the bought chimera not given
# T4 sequence (looked up): T2 sequence (looked up)
# B1: P001009 (IgG) (antibody, V domains shown)
# VH: EVQLLESGGGLVQPGGSLRLSCAASGFTFSSYDMSWVRQAPGKGLEWVSWISHGGGSIYYADSVKGRFTISRDNSKNTLYLQMNSLRAEDTAVYYCARDAPAYSAPLFDYWGQGTLVTVSS
# VL: QSVLTQPPSASGTPGQRVTISCSGSSSNIGNNAVNWYQQLPGTAPKLLIYYDSNRPSGVPDRFSGSKSGTSASLAISGLRSEDEADYYCAAWDDSLSGYVFGGGTKLTVL
# notes: also called P001009 WT; P001009 wt
# How the values were obtained:
# [1] = target: T1, human CD200R1 expressed on cells …; assay: cell-based or functional assay
# [2] = target: T1, human CD200R1 expressed on cells …; assay: flow cytometry, HH cells
# Experimental: (§1) Two additional wells were treated with 10 μl of mouse IgG1K (BD, #555751) and 5 μl of commercial CD200R1 antibody (Biolegend, #329308) to determine CD200R1 expression on the cell line surface for cell quality control.
# (§2) The antibodies were serially diluted 10-fold from a maximum concentration of 100 nM to 10 nM, 1 nM, […], and were added to the pre-seeded cells. After reaction for 1 hour at 4° C., the cells were treated with Alexa-647 goat anti-human IgG (H+L) cross-adsorbed secondary antibody (Invitrogen, #A21445) and incubated for an additional 30 minutes at 4° C. After washing twice with FACS buffer, flow cytometry was performed using a Novocyte Flow cytometer (Agilent). Using GraphPad Prism software, the EC₅₀ was determined using a nonlinear graph model of log (agonist) vs. response-variable slope, as shown in Table 32.
# [3] = target: T1, human CD200R1 expressed on cells …; assay: flow cytometry, Jurkat-CD200R cells
# Experimental: as §1, §2
# [4] = target: T1, human CD200R1 expressed on cells …; assay: flow cytometry on Jurkat-CD200R1 and HH cells, 500 nM antibody in IgG1 form
# In short: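 Cells at 1×10⁵ per well incubated with antibody 1 h at 4 °C, then Alexa-647 anti-human IgG (H+L) secondary for 30 min at 4 °C. After two washes, binding read by flow cytometry.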
# [5] = target: T2, human CD200R1 recombinant protein …; assay: ELISA on human CD200R1, normalized absorbance at 450 nm, 0.0192-300 nM; panel 'Human CD200R1'
# [6] = target: T3, monkey CD200RLa (Sino Biological, …); assay: ELISA, plate-bound monkey CD200RLa (2 ug/mL), antibody 0.0192-300 nM, O.D 450 nm; panel 'recombinant cynomolgus CD200RLa/Fc'
# Experimental: 96-well plates were coated with human CD200RLa (Sino Biological, 11620-H08H) and monkey CD200RLa (Sino Biological, 11576-C02H) recombinant proteins at a concentration of 2 μg/mL at 4° C. for 16 hours, and blocked with 3% skim milk for 1 hour. […] Color was developed with a TMB substrate solution (Thermo Scientific, 34029, 1-Step™ Ultra TMB-ELISA Substrate Solution). The color reaction was stopped with stop solution (Invitrogen, SS04, ELISA Stop Solution).
# [7] = target: T4, recombinant human CD200R1 Fc chimera …; assay: ELISA, plate-bound human CD200R1-Fc (2 ug/mL), IgG 0.0192-300 nM, anti-human IgG F(ab')2-HRP, OD 450 nm; panel 'human CD200R1'
# Experimental: 96-well plates were coated with human CD200R1 (R&D systems, 3414-CD) and mouse CD200R1 protein (R&D systems, 2554-CD) at a concentration of 2 μg/mL at 4° C. for 16 hours and then were blocked with 3% skim milk.
# Color was developed with a TMB substrate solution (Thermo Scientific, 34029, 1-Step™ TMB-ELISA Ultra Substrate Solution). The color reaction was stopped with stop solution (Invitrogen, SS04, ELISA Stop Solution). The absorbance was measured at an optical density of 450 nm.
binder,measurement,setting,value
B1,"EC50 (nM), degree of signal transduction by the Dok2 protein",[1],1.57 nM
same,EC50,[2],190 pM
same,EC50,[3],220 pM
same,"MFI normalized to P001017 (chimeric OX108), %",[4],> 50%
same,EC50 (read off the curve),[5],~2000 pM
same,binding result,[6],no binding (tested: 300 nM)
same,EC50 (read off the curve),[7],~500 pM
